Source: publication PMC7949036, “Zinc transporter mutations linked to acrodermatitis enteropathica disrupt function and cause mistrafficking” (The Journal of Biological Chemistry, 2021)
Substitutions are numbered along the chain they refer to. Names may count otherwise.

Key:
[1] = confocal immunofluorescence, FITC anti-HA, nonpermeabilized cells; settings: glycan lost; control: wild type
[2] = cell-based 65Zn uptake, HEK293T; settings: glycan lost; control: wild type
[3] = biological target: the molecule itself; assay: SEC; Superdex 200 10/300GL, 10 mM HEPES pH 7.3, 100 mM NaCl; apparent molecular weight estimated from protein standards; native purified protein

B1: hZIP4 (human ZIP4): N261Q (protein)
parent chain: MASLVSLELGLLLAVLVVTATASPPAGLLSLLTSGQGALDQEALGGLLNTLADRVHCANGPCGKCLSVEDALGLGEPEGSGLPPGPVLEARYVARLSAAAVLYLSNPEGTCEDARAGLWASHADHLLALLESPKALTPGLSWLLQRMQARAAGQTPKMACVDIPQLLEEAVGAGAPGSAGGVLAALLDHVRSGSCFHALPSPQYFVDFVFQQHSSEVPMTLAELSALMQRLGVGREAHSDHSHRHRGASSRDPVPLISSSNSSSVWDTVCLSARDVMAAYGLSEQAGVTPEAWAQLSPALLQQQLSGACTSQSRPPVQDQLSQSERYLYGSLATLLICLCAVFGLLLLTCTGCRGVTHYILQTFLSLAVGAVTGDAVLHLTPKVLGLHTHSEEGLSPQPTWRLLAMLAGLYAFFLFENLFNLLLPRDPEDLEDGPCGHSSHSHGGHSHGVSLQLAPSELRQPKPPHEGSRADLVAEESPELLNPEPRRLSPELRLLPYMITLGDAVHNFADGLAVGAAFASSWKTGLATSLAVFCHELPHELGDFAALLHAGLSVRQALLLNLASALTAFAGLYVALAVGVSEESEAWILAVATGLFLYVALCDMLPAMLKVRDPRPWLLFLLHNVGLLGGWTVLLLLSLYEDDITF
[1]
  localisation_or_trafficking: no change
[2]
  other: transport activity: decreases

B2: extracellular domain of ZIP4 from Pteropus alecto (black fruit bat), wild type (domain or fragment, UniProt L5KLU7 36-322, looked up)
chain: SGQGALDRVALGGLLNTLAARVHCTSGPCGKCLSVDDLLALGRPEEPGHLARLSAAAALYLSDPEGTCEDIRAGRWASRADHLLALLEGPKALAPGLSRLLQRIQAQTTGQPSAGEACVDPPQLLREAGVAGAPGSPGPVLATLLEHVGRGSCFHTLPTPQYFVDFVFQQSHGNTPNISVAELAALMQRLGVGGVTETHSDHHHQEKRVNRQGPTPLTAPNSSSDTWDTVCLSARDVMAVYGLSEQTGVTPEAWAQLSPALLQQQLSGACSPQPSHPAQNQLSQAEK
notes: ZIP4 (zinc transporter, SLC39A family) of Pteropus alecto, extracellular domain, residues 36-322 of ELK11751; His6 tag removed by thrombin; also called pZIP4-ECD; wild-type pZIP4-ECD; source: E. coli Origami B(DE3) pLysS, purified (Ni-NTA, Mono-Q, SEC); not shown: His6, N-terminal, cleaved
[3]
  stoichiometry N: 2

B3: pZIP4-ECD A91T variant (domain or fragment, Pteropus alecto, UniProt L5KLU7 36-322, looked up)
chain: B2 chain with A56T
notes: ZIP4 of Pteropus alecto, extracellular domain, residues 36-322 of ELK11751, with A91T (equivalent to A99T of human ZIP4); source: E. coli Origami B(DE3) pLysS, purified (Ni-NTA, Mono-Q, SEC); not shown: His6, N-terminal, cleaved
[3]
  binding result: binds

B4: pZIP4-ECD P193L variant (domain or fragment, Pteropus alecto, UniProt L5KLU7 36-322, looked up)
chain: B2 chain with P158L
notes: ZIP4 of Pteropus alecto, extracellular domain, residues 36-322 of ELK11751, with P193L (equivalent to P200L of human ZIP4); source: E. coli Origami B(DE3) pLysS, purified (Ni-NTA, Mono-Q, SEC); not shown: His6, N-terminal, cleaved
[3]
  binding result: binds

B5: pZIP4-ECD R87C variant (domain or fragment, Pteropus alecto, UniProt L5KLU7 36-322, looked up)
chain: B2 chain with R52C
notes: ZIP4 of Pteropus alecto, extracellular domain, residues 36-322 of ELK11751, with R87C (equivalent to R95C of human ZIP4); source: E. coli Origami B(DE3) pLysS, purified (Ni-NTA, Mono-Q, SEC); not shown: His6, N-terminal, cleaved
[3]
  binding result: binds

B6: pZIP4-ECD C64R variant (domain or fragment, Pteropus alecto, UniProt L5KLU7 36-322, looked up)
chain: B2 chain with C29R
notes: ZIP4 of Pteropus alecto, extracellular domain, residues 36-322 of ELK11751, with C64R (equivalent to C62R of human ZIP4); source: E. coli Origami B(DE3) pLysS, purified (Ni-NTA, Mono-Q, SEC); not shown: His6, N-terminal, cleaved
[3]
  binding result: binds
